According to IntAct's records for PubMed 25601757:

Target: wt1_human WT1 (UniProt P19544)
Sequence (P19544 whole entry): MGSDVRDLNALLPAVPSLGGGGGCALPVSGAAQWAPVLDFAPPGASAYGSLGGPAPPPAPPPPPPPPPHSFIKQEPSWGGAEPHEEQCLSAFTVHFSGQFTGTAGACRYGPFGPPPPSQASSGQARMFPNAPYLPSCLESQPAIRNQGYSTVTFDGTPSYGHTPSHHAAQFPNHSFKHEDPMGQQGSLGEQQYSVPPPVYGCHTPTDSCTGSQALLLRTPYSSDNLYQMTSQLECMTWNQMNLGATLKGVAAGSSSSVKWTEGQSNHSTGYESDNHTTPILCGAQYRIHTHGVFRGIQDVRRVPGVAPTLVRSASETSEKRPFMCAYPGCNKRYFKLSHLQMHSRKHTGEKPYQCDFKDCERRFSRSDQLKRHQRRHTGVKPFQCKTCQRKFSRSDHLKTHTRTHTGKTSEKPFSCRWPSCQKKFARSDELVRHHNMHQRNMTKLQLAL

Substance	effect of a mutation on the interaction
Methylcytosine dioxygenase TET2 (Homo sapiens), Q6N021 F1368L	decreasing interaction strength
Methylcytosine dioxygenase TET2 (Homo sapiens), Q6N021 D1242V	disrupting interaction strength
Methylcytosine dioxygenase TET2 (Homo sapiens), Q6N021 P1617H	disrupting interaction strength
Methylcytosine dioxygenase TET2 (Homo sapiens), Q6N021 A1505T	disrupting interaction strength
Methylcytosine dioxygenase TET2 (Homo sapiens), Q6N021 T1884A	disrupting interaction strength
Methylcytosine dioxygenase TET2 (Homo sapiens), Q6N021 R1302G	disrupting interaction strength
Methylcytosine dioxygenase TET2 (Homo sapiens), Q6N021 D1314G	with no effect
Methylcytosine dioxygenase TET2 (Homo sapiens), Q6N021 L1340R	decreasing interaction strength
Methylcytosine dioxygenase TET2 (Homo sapiens), Q6N021 G1256D	disrupting interaction strength
Methylcytosine dioxygenase TET2 (Homo sapiens), Q6N021 G1861R	disrupting interaction strength
